Experimental findings from patent publication US20220025021A1 (BETH ISRAEL DEACONESS MEDICAL CENTER, published 2022) are described below.

Common to all, as to assay: cell-based or functional assay
Assay [1] addresses HIV-1 Env of pseudovirus SC422661.8 (HIV-1).
In assay [2] the target is HIV-1 Env of pseudovirus RHPA4259.7 (HIV-1).
The target of assay [3] is HIV-1 Env of pseudovirus Du172.17 (HIV-1).
In assay [4] the target is HIV-1 Env of pseudovirus BB1012-11.TC21 (HIV-1).
The target of assay [5] is HIV-1 Env of pseudovirus CNE52 (HIV-1).
For assay [6], the target named is HIV-1 Env of pseudovirus 0260.v5.c36 (HIV-1).

B1: MS-70 (antibody, V domains shown)
VH: QVQLVQSGPEVRKPGTSVKVSCKAPGNTLKTYDLHWVRSVPGQGLQWMGWISHEGDKKVIVERFKAKVTIDWDRSTNTAYLQLSGLTSGDTAVYYCAKGSKHRLRDYALYDDDGALNWAVDVDYLSNLEFWGQGTAVTVSS
VL: DFVLTQSPHSLSVTPGESASISCKSSHSLIHGDRNNYLAWYVQKPGQSPQLLIYLASSRASGVPDRFSGSGSDKDFTLKISRVETEDVGTYYCMQGRESPWTFGQGTKVDIKR
Consider B1, for which the “neutralization IC50” value in assay [1] was 0.391 mg/L; in assay [2], 0.182 mg/L; in assay [3] it was 1.49 mg/L; in assay [4], 0.021 mg/L; in assay [5], 0.301 mg/L; in assay [6], 0.028 mg/L. Also, the “neutralization IC80” value was found to be 2.43 mg/L in assay [1]; 0.734 mg/L in assay [2]; 6.05 mg/L in assay [3]; 0.079 mg/L in assay [4]; 2.55 mg/L in assay [5]; 0.103 mg/L in assay [6].

B2: MS-72 (antibody, V domains shown)
VH: QVQLVQSGPEVRKPGTSVKVSCKAPGNTLKTYDLHWVRSVPGQGLQWMGWISHEGDKKVIVERFKAKVTIDWDRSTNTAYLQLSGLTSGDTAVYYCAKGSKHRLRDYALYDDDGALNWAVDVDYLSNLEFWGQGTAVTVSS
VL: DFVLTQSPHSLSVTPGESASISCKSSHSLIHGDRNNYLAWYVQKPGRSPQLLIYLASSRASGVPDRFSGSGSDTDFTLKISRVETEDVGTYYCMQGRESPWTFGQGTKVDIKR
Regarding B2, the “neutralization IC50” value worked out at 0.373 mg/L in assay [1]; 0.247 mg/L in assay [2]; 1.75 mg/L in assay [3]; 0.023 mg/L in assay [4]; 0.302 mg/L in assay [5]; 0.023 mg/L in assay [6]. Moreover, the “neutralization IC80” value in assay [1] is 2.83 mg/L; in assay [2] it was 1.16 mg/L; in assay [3], 8.76 mg/L; in assay [4] it was 0.089 mg/L; in assay [5], 4.53 mg/L; in assay [6] it was 0.114 mg/L.

B3: MS-74 (antibody, V domains shown)
VH: QVQLVQSGPEVRKPGTSVKVSCKAPGNTLKTYDLHWVRSVPGQGLQWMGWISHEGDKKVIVERFKAKVTIDWDRSTNTAYLQLSGLTSGDTAVYYCAKGSKHRLRDYALYDDDGALNWAVDVDYLSNLEFWGQGTAVTVSS
VL: DFVLTQSPHSLSVTPGESASISCKSSHSLIHGDRNNYLAWYVQKPGRSPQLLIYLASSRASGVPDRFSGSGSDKDFTLKISRVETEDVGVYYCMQGRESPWTFGQGTKVDIKR
As to B3, the “neutralization IC50” value came out at 0.388 mg/L in assay [1]; 0.132 mg/L in assay [2]; 1.46 mg/L in assay [3]; 0.021 mg/L in assay [4]; 0.169 mg/L in assay [5]; 0.017 mg/L in assay [6]. In addition, the “neutralization IC80” value was 3.51 mg/L in assay [1]; 0.461 mg/L in assay [2]; 5.57 mg/L in assay [3]; 0.093 mg/L in assay [4]; 1.46 mg/L in assay [5]; 0.086 mg/L in assay [6].

B4: MS-68 (antibody)
VH: not shown
VL: DFVLTQSPHSLPVTPGESASISCKSSHSLIHGDRNNYLAWYVQKPGRSPQLLIYLASSRASGVPDRFSGSGSDKDFTLKISRVETEDVGTYYCMQGRESPWTFGQGTKVDIKRTVAAPSVFIFPPSDEQLKSGTASVVCLLNNFYPREAKVQWKVDNALQSGNSQESVTEQDSKDSTYSLSSTLTLSKADYEKHKVYACEVTHQGLSSPVTKSFNRGEC
Regarding B4, the “neutralization IC50” value in assay [1] is 0.538 mg/L; in assay [2], 0.199 mg/L; in assay [3] it was 1.82 mg/L; in assay [4] it was 0.023 mg/L; in assay [5] it was 0.136 mg/L; in assay [6], 0.019 mg/L. The “neutralization IC80” value was determined as 2.02 mg/L in assay [1]; 0.759 mg/L in assay [2]; 6.8 mg/L in assay [3]; 0.076 mg/L in assay [4]; 1.13 mg/L in assay [5]; 0.073 mg/L in assay [6].

B5: MS-69 (antibody)
VH: not shown
VL: DFVLTQSPHSLSVTPGEPASISCKSSHSLIHGDRNNYLAWYVQKPGRSPQLLIYLASSRASGVPDRFSGSGSDKDFTLKISRVETEDVGTYYCMQGRESPWTFGQGTKVDIKRTVAAPSVFIFPPSDEQLKSGTASVVCLLNNFYPREAKVQWKVDNALQSGNSQESVTEQDSKDSTYSLSSTLTLSKADYEKHKVYACEVTHQGLSSPVTKSFNRGEC
For B5, the “neutralization IC50” value in assay [1] amounted to 0.609 mg/L; in assay [2] it was 0.139 mg/L; in assay [3] it was 1.4 mg/L; in assay [4], 0.018 mg/L; in assay [5], 0.129 mg/L; in assay [6], 0.021 mg/L. Further, the “neutralization IC80” value amounted to 3.37 mg/L in assay [1]; 0.811 mg/L in assay [2]; 5.6 mg/L in assay [3]; 0.071 mg/L in assay [4]; 1.9 mg/L in assay [5]; 0.078 mg/L in assay [6].

B6: MS-71 (antibody)
VH: not shown
VL: DFVLTQSPHSLSVTPGESASISCKSSHSLIHGDRNNYLAWYVQKPGRSPQLLIYLASSRASGVPDRFSGSGSGKDFTLKISRVETEDVGTYYCMQGRESPWTFGQGTKVDIKRTVAAPSVFIFPPSDEQLKSGTASVVCLLNNFYPREAKVQWKVDNALQSGNSQESVTEQDSKDSTYSLSSTLTLSKADYEKHKVYACEVTHQGLSSPVTKSFNRGEC
As to B6, the “neutralization IC50” value is 0.273 mg/L in assay [1]; 0.164 mg/L in assay [2]; 1.29 mg/L in assay [3]; 0.015 mg/L in assay [4]; 0.172 mg/L in assay [5]; 0.022 mg/L in assay [6]. For the same molecule, the “neutralization IC80” value in assay [1] is 1.94 mg/L; in assay [2] it was 0.583 mg/L; in assay [3] it was 6.07 mg/L; in assay [4] it was 0.054 mg/L; in assay [5] it was 2.59 mg/L; in assay [6], 0.062 mg/L.

B7: MS-73 (antibody)
VH: not shown
VL: DFVLTQSPHSLSVTPGESASISCKSSHSLIHGDRNNYLAWYVQKPGRSPQLLIYLASSRASGVPDRFSGSGSDKDFTLKISRVEAEDVGTYYCMQGRESPWTFGQGTKVDIKRTVAAPSVFIFPPSDEQLKSGTASVVCLLNNFYPREAKVQWKVDNALQSGNSQESVTEQDSKDSTYSLSSTLTLSKADYEKHKVYACEVTHQGLSSPVTKSFNRGEC
For B7, the “neutralization IC50” value was 0.384 mg/L in assay [1]; 0.094 mg/L in assay [2]; 0.934 mg/L in assay [3]; 0.023 mg/L in assay [4]; 0.207 mg/L in assay [5]; 0.018 mg/L in assay [6]. Besides, the “neutralization IC80” value was 2.54 mg/L in assay [1]; 0.549 mg/L in assay [2]; 5 mg/L in assay [3]; 0.086 mg/L in assay [4]; 1.81 mg/L in assay [5]; 0.065 mg/L in assay [6].
